Test results taken from PMC12650658, “Evaluating the Topological Features of Monomeric and Trimeric TRAF2-C: A Multi-Disciplinary Approach” (Biomolecules, 2025).

Target: the molecule itself
Experiment: dynamic light scattering; TRAF2-C ≈ 4 µM (in monomers), 20 °C, filtered 0.22 µm; bimodal Gaussian fit of the size distribution (monomers, trimers)

B1: C-terminal domain of human TRAF2 (TRAF2-C, residues 310-501) (domain or fragment, UniProt Q12933 310-501, looked up)
chain: DQDKIEALSSKVQQLERSIGLKDLAMADLEQKVLEMEASTYDGVFIWKISDFARKRQEAVAGRIPAIFSPAFYTSRYGYKMCLRIYLNGDGTGRGTHLSLFFVVMKGPNDALLRWPFNQKVTLMLLDQNNREHVIDAFRPDVTSSSFQRPVNDMNIASGCPLFCPVSKMEAKNSYVRDDAIFIKAIVDLTGL
notes: TNF receptor-associated factor 2 (TRAF2), human, C-terminal domain, residues 310-501; Unlabelled protein used for DLS, CD and SANS; Only a pET-based vector is named; the tag is inferred from the Ni-NTA step; also called TRAF2 C-terminal domain; source: E. coli BL21 (DE3), purified (Ni-NTA, Superdex 75 SEC)
stoichiometry N: 3
